Test results taken from US20140329228A1 (Ushio Denki Kabushiki Kaisha, priority 2011, published 2014).
Marks after values point to notes of the source that are not given here.

Columns and labels:
Type in all cases: binding
HSA = HSA (Homo sapiens, UniProt P02768); assay: Fluorescence emission spectrum measurement, different-color double-label anti-SA Fab complex with HSA; conditions: antigen HSA; ratio to no antigen
From the text: Similarly, the different-color double-label Fab complex of the anti-SA antibody prepared in Example 1 comprising a polypeptide containing a heavy chain variable region (VH; SEQ ID NO: 12) of an anti-SA antibody labeled with a CR110, TAMRA, or ATTO 655 fluorescent dye and an antibody heavy chain constant domain (CH1; SEQ ID NO: 6), and a polypeptide containing a light chain variable region (VL; SEQ ID NO: 10) of an anti-SA antibody labeled with a dye differing from the above dye and an antibody light chain constant domain (Cκ; SEQ ID NO: 4) was reacted with antigenic HSA (0 to 100 μM), and then fluorescence intensity was measured. The ratio of the fluorescence intensity at each antigen concentration to the fluorescence intensity when no antigen was present was designated as the “fluorescence intensity ratio” and is shown in the graphs of FIG. 10. […]
Moreover, when irradiated with excitation light with a wavelength of 530 nm, fluorescence intensity ratios obtained at a fluorescence wavelength of about 530 nm in the case of CR110_TAMRA was higher than those of no_TAMRA, because of the quenching effect due to the interaction between the fluorescent dyes. […]

[1] = Measurement of ractopamine using fluoro-labeled Fab complex; conditions: 3.4 μg/mL Ractopamine versus absence of antigen, Ex/Em 530/580
[2] = Measurement of cotinine using fluoro-labeled Fab complex; conditions: 3.5 μg/mL Cotinine versus absence of antigen, Ex/Em 530/580
[3] = Measurement of cannabinoid component THC using fluoro-labeled Fab complex; conditions: 100 μg/mL THC versus absence of antigen, Ex/Em 530/580
[4] = Fluorescence enhancement of fluoro-labeled Fab complex / scFv with ketamine; conditions: for Fluorescence enhancement: 1.0 mg/mL Ketamine versus absence of antigen, Ex/Em 530/580
[5] = Measurement of clenbuterol using fluoro-labeled Fab complex; conditions: 16 μg/mL Clenbuterol versus absence of antigen; Ex/Em 480/530
[6] = Fluorescence enhancement of fluoro-labeled Fab complex with MDA; conditions: antigen MDA 100 μg/mL versus absence of antigen
[7] = Fluorescence enhancement of fluoro-labeled Fab complex / scFv with cocaine; conditions: antigen Cocaine 100 μg/mL versus absence of antigen
[8] = Fluorescence enhancement of fluoro-labeled Fab complex / scFv with morphine; conditions: antigen Morphine 100 μg/mL versus absence of antigen

B1: CR110_TAMRA: different-color double-label Fab complex of anti-SA antibody; CR110-labeled VH (SEQ ID NO: 12)+CH1, TAMRA-labeled VL (SEQ ID NO: 10)+Cκ (antibody, V domains shown)
VH: EVQLLESGGGLVQPGGSLRLSCAASGFTFSSYAMSWVRQAPGKGLEWVSHISPYGANTRYADSVKGRFTISRDNSKNTLYLQMNSLRAEDTAVYYCAKGLRAFDYWGQGTLVTVSS
VL: DIQMTQSPSSLSASVGDRVTITCRASQSISSYLNWYQQKPGKAPKLLIYRASLLQSGVPSRFSGSGSGTDFTLTISSLQPEDFATYYCQQGRDRPATFGQGTKVEIKR
modifications: CH1 and Ckappa constant domains; CR110 and TAMRA labels; anti-SA antibody VH; anti-SA antibody VL
maximum fluorescence enhancement (HSA): 75 fold

B2: Anti-Ractopamine: same-color double-label Fab complex of anti-ractopamine antibody; TAMRA-labeled VL (SEQ ID NO: 17) and VH (SEQ ID NO: 18) (antibody, V domains shown)
VH: DVQLVESGPGLVKPSQSLSLTCTVTGYSITSDYAWNWIRQFPGNKLEWMGYIFYSGSTSYNPSLKSRISITRDTSKNQFFLQLNSVTTEDTATYFCARLAYYYDYDGYAMDYWGQGTSVTVSS
VL: DILMTQTPLSLPVSLGDQASISCRSSQNIVHSDGNTYLEWYLQKPGQSPKLLISKVSNRFSGVPDRFSGSGSGTDFTLKISRVEAEDLGIYYCFQGSHVPWTFGGGTKLEIKR
modifications: Fab; TAMRA labels; Ract-VH-18; Ract-VL-17
Fluorescence enhancement [1]: 2.3*^1
Fluorescence enhancement ([1]; listed as anti-ractopamine): 2.3

B3: Anti-cotinine: same-color double-label Fab complex of anti-cotinine antibody; TAMRA-labeled VL (SEQ ID NO: 19) and VH (SEQ ID NO: 20) (antibody, V domains shown)
VH: QQQLVESGGRLVTPGGSLTLTCTASGFSLNNYWMSWVRQAPGKGLEWIGDIHGNRGFNYHASWAKGRFTVSRTSTTVDLRMTSLTTEDTAIYFCARADDSGSHDIWGPGTLVTVSS
VL: ELDLTQTPSPVSAAVGDTVTINCQSSQSVYSAKLSWYQQKPGQPPKLLIYYGSTLASGVPSRFKGSGSGTQFSLTISDVQCADAATYYCQGTYYGPDWYFAFGGGTEVVVKR
modifications: Fab; TAMRA labels; Coti-VH-20; Coti-VL-19
Fluorescence enhancement [2]: 1.9*^2
Fluorescence enhancement ([2]; listed as anti-cotinine): 1.9

B4: Anti-THC: same-color double-label Fab complex of anti-THC antibody; TAMRA-labeled VL (SEQ ID NO: 29) and VH (SEQ ID NO: 30) (antibody, V domains shown)
VH: EVKLVESGGGLVKPGGSLKLSCAASGFTFNNYVMVWLRQTPEKRLEWVASISRGGSTYYPDSVKGRFTISRDNARNILYLQMSSLRSEDTAMYYCVRGTTIVAGDVWGAGTTVTVSS
VL: DIVLTQSPTTMAASPGEKITITCSASSSISSNYLHWYQQKPGFSPKLLIYRTSNLASGVPARFSGSGSGTSYSLTIGTMEAEDVATYYCQQGSSIPLTFGAGTKLELKR
modifications: Fab; TAMRA labels; THC-VH-30; THC-VL-29
Fluorescence enhancement [3]: 1.3*^1
Fluorescence enhancement ([3]; listed as anti-THC): 1.3

B5: Anti-Ketamine: same-color double-label Fab complex of anti-ketamine antibody; TAMRA-labeled VL (SEQ ID NO: 31) and VH (SEQ ID NO: 32) (antibody, V domains shown)
VH: QVQLKESGPGLVAPSQSLSITCTVSGFALTGYGVNWVRQPPGKGLEWLGMIWGDGNTDYNSALKSRLSISKDNSKSQVFLKMNSLQTDDTARYYCARGNGYFYVLDYWGQGTSVTVSS
VL: QAVVTQESALTTSPGETVTLTCRSSTGAVTTSNYANWVQEKPDHLFTGLIGGTNNRAPGVPARFSGSLIGDKAALTITGAQTEDEAIYFCSLWYSNHLVFGGGTKLTVLGQ
modifications: Fab; TAMRA labels; Keta-VH-32; Keta-VL-31
Fluorescence enhancement [4]: 2.0*^2
Fluorescence enhancement ([4]; listed as anti-ketamine): 2.0

B6: Anti-Clenbuterol: different-color double-label Fab complex of anti-clenbuterol antibody; CR110-labeled VL (SEQ ID NO: 15)+Cκ, TAMRA-labeled VH (SEQ ID NO: 16)+CH1 (antibody, V domains shown)
VH: QVKLQESGGGLVKPRGSLKLSCAASGFTFSSYDMSWVRQTPEKRLEWVASIRSGGYYTLYPDSVKGRFTISRDNVKNTLYLQMSSLRSEDTAMYYCSRDGNDEYFDVWGAGTTVTVSS
VL: DIELTQSPAILSASPGEKVTMTCSANSSVSYMHWYQQKSRTSPKLWIYDTSKLASGVPGRFSGSGSGNSYSLTISSMEAEDVATYYCFQGSKYPFTFGSGTRLEIKR
modifications: Ckappa and CH1 without entry; CR110, TAMRA labels; Clen-VH-16; Clen-VL-15
Fluorescence enhancement [5]: 1.5

B7: Anti-Cocaine: same-color double-label Fab complex of anti-cocaine antibody; TAMRA-labeled VL (SEQ ID NO: 27) and VH (SEQ ID NO: 28) (antibody, V domains shown)
VH: DVTLQESGGGLVQPGGSMKLSCAASGFTFSDAWVDWVRQSPGKGLEWVAEIRNKANNHATKYTESVKGRFTISRDDSKSSVYLQMNSLRAEDTGIYYCTSVPQLGRGFAYWGQGTLVTVSS
VL: DIVMTQAAPSVPVTPGESVSISCRSSKSLLHSNGYTYLHWFLQRPGQSPQLLIYRVSNLASGVPDRFSGSGSGTAFTLRFSRVEAEDVGVYYCMQHLEYPFTFGSGTKLEIKR
modifications: Fab; TAMRA labels; Coca-VH-28; Coca-VL-27
Fluorescence enhancement in the presence of 100 μg/mL antigen [6]: 0.9
Fluorescence enhancement in the presence of 100 μg/mL antigen [7]: 3.7
Fluorescence enhancement in the presence of 100 μg/mL antigen ([4]; antigen Ketamine 100 μg/mL versus absence of antigen): 0.9
Fluorescence enhancement in the presence of 100 μg/mL antigen [8]: 0.9
